“Also recorded” adds a separate entry of the source. Read-outs that look alike come from different tables or passages of the source.
Assays:
[1] = In vivo pharmacokinetics profile after subcutaneous administration (GLP-1-Fc ELISA and GLP-2-Fc ELISA); design: species or system male SD (Sprague Dawley) rats; conditions: GLP-1-Fc ELISA
Procedure: First, each protein was administered to 3 male SD (Sprague Dawley) rats per group at a dose of 1 mg/kg by subcutaneous (SC) route. Before injection and after 0.5, 1, 5, 10, 24, 48, 72, 120, and 168 hours after the injection, blood was collected and stored at room temperature for 30 minutes to aggregate. After centrifuging the aggregated blood at 3,000 rpm for 10 minutes, serum of each sample was collected and stored in a cryogenic freezer. Analyses were performed by an assay designed to specifically detect the GLP-1 site and Fc in the administered protein (GLP-1-Fc ELISA) and an assay designed to specifically detect the GLP-2 site and Fc in the administered protein (GLP-2-Fc ELISA). Specifically, a method of loading a biological sample on a plate coated with an antibody that binds to mouse-derived human immunoglobulin G4 (IgG4) to detect the target protein using a biotinylated anti-GLP-1 antibody (GLP-1-Fc ELISA), and a method of loading a biological sample on a plate coated with a monoclonal antibody that specifically reacts with GLP-2, to detect the target protein using a secondary antibody having HRP conjugated to mouse-derived human immunoglobulin G4 (IgG4) (GLP-2-Fc ELISA) were used. The obtained and prepared serum samples were loaded with appropriate dilutions to be analyzed at a position on a straight line of the standard curve.

[2] = test system: Balb/c-nude mice; assay: PET-MRI tissue distribution of Zr89-labelled proteins; type: in vivo; conditions: Zr89 label, SC
Description: Next, the present inventors performed an experiment in Balb/c-nude mice in order to observe the distribution in each tissue organ following the administration of a substance. Zr^89 was used as a radiotracer for tracking the distribution after administration of each substance. Each substance to be administered was labeled with Zr^89 as a reaction condition and a chelator selected through a preliminary test. The labeled Zr^89-protein was purified using a PD-10 column, and Zr^89 labeling efficiency and purity were confirmed using Radio TLC and SEC-HPLC. The labeling efficiency of the Zr^89-protein of 90% or more and the purity of 80% or more were determined to be appropriate, and the labeled protein was administered subcutaneously at 0.2 mCi/0.2 cc. Each administration substance was administered to three animals and static images for 20 minutes were obtained using PET-MRI at 1 hour, 6 hours, 24 hours, 48 hours, and 168 hours after injection. Through image analysis, the distribution of drugs as a function of time in the liver, small intestine, and large intestine was expressed as SUV (Standardized Uptake Value) and comparatively analyzed.

[3] = test system: B6 normal mice; assay: Small intestine weight and body weight (GLP-1-Fc homodimer, GLP-2-Fc homodimer, MG12-1, MG12-4); type: in vivo; conditions: SC twice a week, 4 doses; homodimers 10 nmol/kg, MG12 20 nmol/kg
Description: In addition, the present inventors conducted the same experiment as above while only varying the administered substance, in order to confirm whether the bispecific fusion proteins (MG12-1 and MG12-4) designed in a form other than MG12-5 also increase the small intestine weight and energy absorption rate of experimental animals. Specifically, PBS, 10 nmol/kg GLP-1-Fc homodimer, 10 nmol/kg GLP-2-Fc homodimer, 20 nmol/kg MG12-1, and 20 nmol/kg MG12-4 were subcutaneously administered. The drug was administered twice a week for a total of 4 times for 2 weeks. After 4 doses, the body weight was measured before autopsy, and the small intestine was excised after the autopsy and weighed. After the autopsy, the entire gastrointestinal tract of the mouse was separated, the mesentery and the pancreas were excised, and the area where the ileum and the cecum meet was cut to separate the small intestine and the large intestine. The separated small intestine was perfused and washed with 10% neutral formalin to remove the contents, and was weighed after removing the neutral formalin with an absorbent towel.

[4] = test system: B6 normal mice; assay: Fluorescence spectrometry tissue distribution of Cy5.5-labelled substances; type: in vivo
Procedure: Next, the present inventors performed an experiment in B6 normal mice in order to observe the distribution in each tissue and organ according to the administration of a bispecific fusion protein according to an embodiment of the present invention. Cy5.5 was used as a fluorophore for tracking the distribution after administration of each substance. Buffer exchange was performed for each substance to be administered, MG12-1, MG12-4, and GLP-1Fc homodimer with boric acid buffer (pH 8.5), and with reference to the protocol of the Cy5.5 labeling kit (GE, #PA15605) were allowed to react with an appropriate amount of Cy5.5 overnight under refrigeration conditions. Unreacted Cy5.5 in the reaction-completed substance was removed through the PBS substitution process, and whether Cy5.5 was reacted well was confirmed through the final SDS-PAGE. Each administered substance was diluted with 10% DMSO/PBS to have the same fluorescence intensity using an ELISA plate reader capable of measuring fluorescence intensity before being administered.

[5] = test system: B6 normal mice; assay: MG12 vs. GLP-1 and GLP-2 combo: body weight and small intestine changes; type: in vivo; conditions: 12 days SC, normalized to cumulative feed intake
Procedure: In particular, in order to observe changes in body weight and the small intestine following the substance administration, an experiment was conducted in B6 normal mice. […] After starting drug administration twice a week during the test period, feed intake was measured and expressed as cumulative feed intake, and pre-autopsy body weight was measured to calculate the body weight vs. feed intake. After the autopsy, the weight of the small intestine, and mucosal depth and villus height of the duodenum and the jejunum were measured. More specifically, after the autopsy, the entire gastrointestinal tract of the mouse was separated, the mesentery and the pancreas were excised, and the area where the ileum and the cecum meet was cut to separate the small intestine and the large intestine.

[6] = molecular target: T1, GLP-2 receptor (Homo sapiens, UniProt O95838); assay: GLP-2 in vitro activity, cAMP/CNG channel membrane potential fluorescence assay (Human GLP2R ACTOne cell line)
T1 sequence (O95838 1-553): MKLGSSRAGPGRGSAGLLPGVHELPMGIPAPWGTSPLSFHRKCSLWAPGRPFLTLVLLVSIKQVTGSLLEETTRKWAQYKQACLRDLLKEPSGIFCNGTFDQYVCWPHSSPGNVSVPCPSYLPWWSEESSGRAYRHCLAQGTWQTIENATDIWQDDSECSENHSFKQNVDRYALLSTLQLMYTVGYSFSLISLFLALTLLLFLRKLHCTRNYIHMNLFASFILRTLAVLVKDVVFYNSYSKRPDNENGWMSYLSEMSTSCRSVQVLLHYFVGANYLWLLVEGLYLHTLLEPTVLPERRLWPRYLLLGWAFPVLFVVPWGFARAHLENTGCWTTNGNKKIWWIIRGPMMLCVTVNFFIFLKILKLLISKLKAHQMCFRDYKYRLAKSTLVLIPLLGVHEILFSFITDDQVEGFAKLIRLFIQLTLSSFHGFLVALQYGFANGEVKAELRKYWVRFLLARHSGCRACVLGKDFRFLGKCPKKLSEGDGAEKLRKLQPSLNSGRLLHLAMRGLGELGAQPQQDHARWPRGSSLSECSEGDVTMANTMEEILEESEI
Procedure: Specifically, in order to evaluate the degree of CAMP induction by the GLP-2 specific reaction, a transformed cell line (Human GLP2R ACTOne™), having GLP-2 receptor expressed in a cell line expressing CNG channels that open in a CAMP-specific manner, was procured. […] The washed cells were diluted with a cell culture medium (DMEM/high glucose medium, supplemented with 10% FBS, 5% G418, 0.01% puromycin) and seeded at 3˜5×10^4 cells/100 μL/well, and were incubated in an incubator for about 20 hours at 37° C., 5% CO2. After removing the plate from the CO2 incubator, the cells were observed under a microscope, and when the cell confluence reached 80% or more, 1× dye-loaded solution (Elite™ fluorescent membrane potential dye kit, eEnzyme) was added at 100 μL/well. While blocking the light at room temperature, the reaction was carried out for 2 to 2.5 hours, and before adding the test solutions, the fluorescence baseline (F0) was measured using ELISA. Thereafter, the test solutions of various concentrations to be evaluated were treated at 50 μL/well, reacted for 0.5 hours, and then were measured for fluorescence value (Ft) using ELISA. The reactivity of each test solution was evaluated using the Ft/F0 ratio.

[7] = 24 hours after administration, Cy5.5 label

B1: MG12-4: Knob/hole Fc heterodimer: GLP-1/Exendin 4 hybrid (SEQ 5), glycan linker, first fusion protein SEQ 27; GLP-2 (SEQ 17), second fusion protein SEQ 34 (protein)
chain 1: HGEGTFTSDVSSYLEGQAAKEFIAWLVKGGPSSGAPPPSGGGGGSGGGGSGGGGSAKNTTAPATTRNTTRGGEEKKKEKEKEEQEERTHTCPPCPSHTQPLGVFLFPPKPKDQLMISRTPEVTCVVVDVSQEDPEVQFNWYVDGVEVHNAKTKPREEQFNSTYRVVSVLTVLHQDWLNGKEYKCKVSNKGLPSSIEKTISKAKGQPREPQVYTLPPCQEEMTKNQVSLWCLVKGFYPSDIAVEWESNGQPENNYKTTPPVLDSDGSFFLYSRLTVDKSRWQEGNVFSCSVLHEALHNHYTQKSLSLSLGK
chain 2: HGDGSFSDEMNTILDNLAARDFINWLIQTKITDGGGGSGGGGSGGGGSEKEKEEQEERTHTCPPCPSHTQPLGVFLFPPKPKDQLMISRTPEVTCVVVDVSQEDPEVQFNWYVDGVEVHNAKTKPREEQFNSTYRVVSVLTVLHQDWLNGKEYKCKVSNKGLPSSIEKTISKAKGQPREPQVCTLPPSQEEMTKNQVSLSCAVKGFYPSDIAVEWESNGQPENNYKTTPPVLDSDGSFFLVSRLTVDKSRWQEGNVFSCSVLHEALHNHYTQKSLSLSLGK
terminal half-life, rank among MG12-1, 3, 4 and 5 [1]: shortest half-life | distribution to the liver (SUV) [2]: reduced or showed no difference compared to Fc | distribution to the small intestine and large intestine (SUV) [2]: significantly high compared to that of GLP-1-Fc homodimer and GLP-2-Fc homodimer | small intestine weight [3]: greater increase in small intestine weight than the GLP-2-Fc homodimer administered group; also recorded: superior effect of increasing small intestine weight | weight change before autopsy (body weight) [3]: numerical increase in body weight | Average fluorescence intensity, Brain [4, 7]: 297 | Average fluorescence intensity, Large intestine [4, 7]: 2343 | Average fluorescence intensity, Small intestine [4, 7]: 4302 | distribution in the small intestine and the large intestine ([4]; compared to GLP-1-Fc homodimer): larger | body weight increase vs. feed intake [5]: statistically significant body weight increase compared to the co-administered group

B2: MG12-2: Knob/hole Fc heterodimer: GLP-2 (SEQ 17), glycan linker, second fusion protein SEQ 33; GLP-1 (SEQ 1), first fusion protein SEQ 25 (protein)
chain 1: HGDGSFSDEMNTILDNLAARDFINWLIQTKITDGGGGSGGGGSGGGGSAKNTTAPATTRNTTRGGEEKKKEKEKEEQEERTHTCPPCPSHTQPLGVFLFPPKPKDTLMISRTPEVTCVVVDVSQEDPEVQFNWYVDGVEVHNAKTKPREEQFNSTYRVVSVLTVLHQDWLNGKEYKCKVSNKGLPSSIEKTISKAKGQPREPQVYTLPPCQEEMTKNQVSLWCLVKGFYPSDIAVEWESNGQPENNYKTTPPVLDSDGSFFLYSRLTVDKSRWQEGNVFSCSVMHEALHNHYTQKSLSLSLGK
chain 2: HGEGTFTSDVSSYLEGQAAKEFIAWLVKGRGGGGGSGGGGSGGGGSEKEKEEQEERTHTCPPCPSHTQPLGVFLFPPKPKDTLMISRTPEVTCVVVDVSQEDPEVQFNWYVDGVEVHNAKTKPREEQFNSTYRVVSVLTVLHQDWLNGKEYKCKVSNKGLPSSIEKTISKAKGQPREPQVCTLPPSQEEMTKNQVSLSCAVKGFYPSDIAVEWESNGQPENNYKTTPPVLDSDGSFFLVSRLTVDKSRWQEGNVFSCSVMHEALHNHYTQKSLSLSLGK
GLP-2 activity lower than that of other variants [6]: 4-5 times

B3: GLP-2-Fc homodimer: GLP-2 homodimer fused with Fc not containing the Knobs-into-Holes (KiH) structure (protein)
chain: B2 chain 2
modifications: first fusion protein of bispecific fusion protein containing GLP-1 analogue
notes: GLP-2 homodimer fused with Fc not containing the Knobs-into-Holes (KiH) structure
SUV (Standardized Uptake Value) in liver, small intestine and large intestine ([2]; 1-168 hours): SUV values were increased compared to Fc in all of the three organs | small intestine weight [3]: statistically significant increase | weight change before autopsy (body weight) [3]: no change | EC50 ([6]; Table 3, GLP-2 activity): 0.44 nM | relative activity (%), GLP-2 activity ([6]; compared to GLP-2-Fc homodimer): 100% | EC50 ([6]; read-out: EC50, GLP-2 activity, Table 4 experiment): 7.7 nM

— patent US20240368239A1, “Novel bispecific protein and use thereof” (SL METAGEN, priority 2020, published 2024)
